Target: SecYEG labeled at SecY residue 292 with AF488 (E. coli) (UniProt P0AGA2)
Assay: FRET or BRET

FRET efficiency	Substance
0.25	SecA-PhoA chimera labeled at PhoA residue 2 with AF647
0.46	SecA-PhoA chimera labeled at PhoA residue 22 with AF647
0.24	SecA-PhoA chimera labeled at PhoA residue 37 with AF647
0.3	SecA-PhoA chimera labeled at PhoA residue 45 with AF647

Reference: publication PMC10639101
